The target of this test is human angiotensin-converting enzyme 2, extracellular catalytic domain, produced in mammalian cells … (human, UniProt Q9BYF1 19-615). The test can be described thus: FACS.
Sequence of human angiotensin-converting enzyme 2, extracellular catalytic domain, produced in mammalian cells … (Q9BYF1 19-615): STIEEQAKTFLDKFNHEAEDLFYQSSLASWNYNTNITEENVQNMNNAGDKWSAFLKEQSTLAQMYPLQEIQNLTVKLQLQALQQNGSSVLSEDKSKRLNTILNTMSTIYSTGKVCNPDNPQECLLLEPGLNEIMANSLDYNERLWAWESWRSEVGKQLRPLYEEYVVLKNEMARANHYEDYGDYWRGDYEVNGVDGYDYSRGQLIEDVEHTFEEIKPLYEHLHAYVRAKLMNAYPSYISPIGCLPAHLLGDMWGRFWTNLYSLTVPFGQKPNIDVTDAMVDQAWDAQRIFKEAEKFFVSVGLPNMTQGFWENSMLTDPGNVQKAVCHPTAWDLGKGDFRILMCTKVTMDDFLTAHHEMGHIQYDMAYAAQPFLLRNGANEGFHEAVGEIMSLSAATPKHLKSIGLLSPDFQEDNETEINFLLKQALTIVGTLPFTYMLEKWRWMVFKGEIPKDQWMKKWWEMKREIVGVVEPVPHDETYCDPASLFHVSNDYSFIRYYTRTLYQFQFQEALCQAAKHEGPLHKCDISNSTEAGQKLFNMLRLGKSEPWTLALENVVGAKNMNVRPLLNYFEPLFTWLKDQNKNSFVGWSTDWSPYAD

As a reminder, the Kd is the free concentration of one partner at which half of the binding sites on the other are occupied at equilibrium, for simple one-to-one binding. A high value points to a looser complex. With ACEPLGYALFLCSG [GR1.9 (N8A), yeast-displayed alanine mutant of GR1.4], the Kd was greater than 1000 nM.
